Measurements from patent US20050004353A1 (Amgen, published 2005).
Several values for one entry are separate records, joined by “and”; a condition that tells them apart may be missing. Identical values can stand only once.

Legend:
[1] = biological target: T1, human interferon-gamma (IFN-γ) (human, UniProt P01579 24-161); experiment: cell-based or functional assay
T1 sequence (looked up): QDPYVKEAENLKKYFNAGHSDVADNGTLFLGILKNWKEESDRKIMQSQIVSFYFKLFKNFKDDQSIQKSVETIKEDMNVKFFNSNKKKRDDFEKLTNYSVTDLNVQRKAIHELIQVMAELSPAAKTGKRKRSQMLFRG

[2] = biological target: T1, human interferon-gamma (IFN-γ); experiment: equilibrium-binding assay in solution, free antibody captured on IFN-γ coupled beads, KinExA
Experimental: Binding kinetics for several of the antibodies to IFN-γ were measured by BIAcore analysis. […] Accordingly, an equilibrium-binding assay was developed and used. A fixed amount of antibody was incubated with various concentrations of IFN-γ for greater than 5 hours in order to reach equilibrium and then contacted with IFN-γ coupled beads for a very brief time, and the amount of free antibody that bound to the beads was measured in a KINEXA™ machine (Sapidyne Instruments Inc., Boise, Id.), a fluorescence based immunoassay instrument. The lowest equilibrium dissociation constant obtained, ˜24 pM, was with the 1119 antibody.

huIFN-γI77 = biological target: T2, huIFN-γI77 (human, UniProt P01579 24-161); experiment: cell-based or functional assay
T2 sequence (looked up): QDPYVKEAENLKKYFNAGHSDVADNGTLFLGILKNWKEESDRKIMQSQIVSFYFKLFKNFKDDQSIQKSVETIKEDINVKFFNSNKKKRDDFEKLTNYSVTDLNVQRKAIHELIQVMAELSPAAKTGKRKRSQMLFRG

huIFN-γR65 = biological target: T3, huIFN-γR65 (human, UniProt P01579 24-161); experiment: cell-based or functional assay
T3 sequence (looked up): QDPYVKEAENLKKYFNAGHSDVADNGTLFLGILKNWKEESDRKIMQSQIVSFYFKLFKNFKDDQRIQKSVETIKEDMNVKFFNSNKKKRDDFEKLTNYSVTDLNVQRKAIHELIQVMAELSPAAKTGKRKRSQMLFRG

huIFN-γS103 = biological target: T4, huIFN-γS103 (human, UniProt P01579 24-161); experiment: cell-based or functional assay
T4 sequence (looked up): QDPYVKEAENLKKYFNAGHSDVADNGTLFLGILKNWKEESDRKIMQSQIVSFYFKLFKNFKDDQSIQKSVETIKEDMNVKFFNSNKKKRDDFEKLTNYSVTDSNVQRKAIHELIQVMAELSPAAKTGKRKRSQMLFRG

huIFN-γI126 = biological target: T5, huIFN-γI126 (human, UniProt P01579 24-161); experiment: cell-based or functional assay
T5 sequence (looked up): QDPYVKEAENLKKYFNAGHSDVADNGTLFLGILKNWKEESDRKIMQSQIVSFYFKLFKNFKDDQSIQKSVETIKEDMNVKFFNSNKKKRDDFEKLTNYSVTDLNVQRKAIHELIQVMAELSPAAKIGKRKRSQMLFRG

cynomolgus monkey IFN-γ = biological target: T6, cynomolgus monkey IFN-γ (cynomolgus monkey, UniProt P63309 24-165); experiment: cell-based or functional assay
T6 sequence (looked up): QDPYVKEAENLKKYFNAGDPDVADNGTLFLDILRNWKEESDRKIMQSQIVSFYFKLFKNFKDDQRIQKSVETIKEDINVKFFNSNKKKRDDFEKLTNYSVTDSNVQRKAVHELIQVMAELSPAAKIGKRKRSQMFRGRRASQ

huIFN-γV110 = biological target: T7, huIFN-γV110 (human, UniProt P01579 24-161); experiment: cell-based or functional assay
T7 sequence (looked up): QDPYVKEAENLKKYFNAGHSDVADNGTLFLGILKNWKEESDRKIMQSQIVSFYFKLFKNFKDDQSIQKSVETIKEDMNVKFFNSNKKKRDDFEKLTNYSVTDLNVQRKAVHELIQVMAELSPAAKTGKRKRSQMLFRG

huIFN-γP20 = biological target: T8, huIFN-γP20 (human, UniProt P01579 24-161); experiment: cell-based or functional assay
T8 sequence (looked up): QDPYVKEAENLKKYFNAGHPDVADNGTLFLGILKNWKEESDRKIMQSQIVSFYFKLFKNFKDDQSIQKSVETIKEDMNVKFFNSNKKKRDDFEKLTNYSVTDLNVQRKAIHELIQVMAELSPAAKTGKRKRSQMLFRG

huIFN-γR34 = biological target: T9, huIFN-γR34 (human, UniProt P01579 24-161); experiment: cell-based or functional assay
T9 sequence (looked up): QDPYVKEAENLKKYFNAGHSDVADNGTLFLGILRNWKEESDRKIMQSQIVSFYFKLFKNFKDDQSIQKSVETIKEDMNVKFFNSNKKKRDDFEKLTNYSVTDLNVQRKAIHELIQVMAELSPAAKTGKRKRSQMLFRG

huIFN-γD31 = biological target: T10, huIFN-γD31 (human, UniProt P01579 24-161); experiment: cell-based or functional assay
T10 sequence (looked up): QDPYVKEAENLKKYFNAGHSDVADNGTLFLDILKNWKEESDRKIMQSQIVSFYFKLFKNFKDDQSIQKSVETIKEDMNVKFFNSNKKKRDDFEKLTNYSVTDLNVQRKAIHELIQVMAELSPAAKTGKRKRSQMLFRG

huIFN-γD19 = biological target: T11, huIFN-γD19 (human, UniProt P01579 24-161); experiment: cell-based or functional assay
T11 sequence (looked up): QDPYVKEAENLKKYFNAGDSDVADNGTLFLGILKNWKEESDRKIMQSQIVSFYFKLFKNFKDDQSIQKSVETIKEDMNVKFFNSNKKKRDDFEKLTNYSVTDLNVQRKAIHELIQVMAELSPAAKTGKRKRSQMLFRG

[3] = biological target: T1, human interferon-gamma (IFN-γ); experiment: ELISA on plates coated with recombinant IFN-γ, antibody purified from hybridoma supernatant

B1: 1121 anti-IFN-γ antibody (antibody, V domains shown)
VH: EVQLVQSGAEVKKPGESLKISCKGSGYNFTSYWIGWVRQMPGKGLEWMGIIYPGDSDTRYSPSFQGQVTISADKSISTAYLQWSSLKASDTAMYYCGSGSYWYFDLWGRGTLVTVSS
VL: EIVLTQSPGTLSLSPGERATLSCRASQSVSSSYLAWYQQKPGQAPRLLIYGASSRATGIPDRFSGSGSGTDFTLTISRLEPEDFAVYYCQRSGGSSFTFGPGTKVDIKR
IC50, A549 bioassay (inhibition of the anti-proliferative effect of IFN-γ, 30 pM IFN-γ) [1]: 46 pM | IC50, THP-1/HLA DR bioassay (21 pM IFN-γ) [1]: 60 pM

B2: 1118 anti-IFN-γ antibody (antibody, V domains shown)
VH: EVQLVQSGAEVKKPGESLKISCKGSGYSFTSYWIGWVRQMPGKGLEWMGIIYPGDSDTRYSPSFQGQVTISADKSISTAYLQWSSLKASDTAMYYCGSGSYWYFDLWGRGTLVTVSS
VL: EIVLTQSPGTLSLSPGERATLSCRASQSVSSSSLAWYQQKPGQAPRLLIYGASSRATGIPDRFSGSGSGTDFTLTISRLEPEDFAVYYCQRSGGSSFTFGPGTKVDIKR
IC50, A549 bioassay (inhibition of the anti-proliferative effect of IFN-γ, 30 pM IFN-γ) [1]: 97 pM | IC50, THP-1/HLA DR bioassay (21 pM IFN-γ) [1]: 86 pM

B3: 1119 anti-IFN-γ antibody (antibody, human IgG1, kappa, V domains shown)
VH: EVQLVQSGAEVKKPGESLKISCKGSGYNFTSYWIGWVRQMPGKGLELMGIIYPGDSDTRYSPSFQGQVTISADKSISTAYLQWSSLKASDTAMYYCGSGSYFYFDLWGRGTLVTVSS
VL: EIVLTQSPGTLSLSPGERATLSCRASQSVSSSYLAWYQQKPGQAPRLLIYGASSRATGIPDRFSGSGSGTDFTLTISRLEPEDFAVYYCQRSGGSSFTFGPGTKVDIKR
notes: also called 1119 antibody; 1119 mAb
Kd [2]: ~24 pM | IC50, A549 bioassay (inhibition of the anti-proliferative effect of IFN-γ, 30 pM IFN-γ) [1]: 14 pM | IC50, THP-1/HLA DR bioassay (21 pM IFN-γ) [1]: 14 pM | IC50, human whole blood bioassay (IFN-γ-induced IP-10 production), one of two donors [1]: 17 pM and 14 pM | % Neutralization by 1119 (A549 bioassay) (huIFN-γI77): 108% | % Neutralization by 1119 (A549 bioassay) (huIFN-γR65): 109% | % Neutralization by 1119 (A549 bioassay) (huIFN-γS103): 102% | % Neutralization by 1119 (A549 bioassay) (huIFN-γI126): 109% | % Neutralization by 1119 (A549 bioassay) (cynomolgus monkey IFN-γ): 0% | % Neutralization by 1119 (A549 bioassay) (huIFN-γV110): 103% | % Neutralization by 1119 (A549 bioassay) (huIFN-γP20): 0% | % Neutralization by 1119 (A549 bioassay) (huIFN-γR34): 109% | % Neutralization by 1119 (A549 bioassay) (huIFN-γD31): 103% | % Neutralization by 1119 (A549 bioassay) (huIFN-γD19): 0%

B4: 1121* anti-IFN-γ antibody (antibody, human IgG1, kappa, V domains shown)
VH: EVQLVQSGAEVKKPGESLKISCKGSGYNFTSYWIGWVRQMPGKGLEWMGIIYPGDSDTRYSPSFQGQVTISADKSISTAYLQWSSLKASDTAMYYCGSGSYWYFDLWGRGTLVTVSS
VL: EIVLTQSPGTLSLSPGERATLSCRASQSIISSYLAWYQQKPGQTPRLLIYGVSSRATGIPDRFSGSGSGTDFTLTITRLEPEDFAVYYCQQYGNSFMYTFGQGTKLEIKR
notes: the ELISA used antibody purified from hybridoma supernatant
binding result [3]: binds
